The results in this text go back to publication PMC3062689 (Biochemistry, 2011).

What all share (experiment): SEC-MALS
The target of data set [1] is Mouse arrestin-1-(F86A,F198A, A349V) (mouse) (UniProt P20443).
Data set [2] has as its target Mouse arrestin-1-(F86A,F198A) (mouse) (UniProt P20443).
Data set [3] deals with the molecule itself.
Data set [4] deals with the molecule itself. This is another data set of the same source.
Data set [5] concerns the molecule itself. This is another data set of the same source.
Data set [6] deals with the molecule itself. The source holds these as a separate data set.

Read-outs that look alike come from different tables or passages of the source.

By Kd is commonly meant the equilibrium constant for the complex coming apart. One may read the stoichiometry N as the number of molecules, sites or subunits per partner or assembly. Take “Mouse arrestin-1-(F86A,F198A, A349V) (from UniProt P20443 1-403) (natural protein)”: in data set [1], the Kd came to 724 µM, the log Kdim (association constant) was 3.14 and the stoichiometry N amounted to 2.
In the case of “Mouse arrestin-1-(F86A,F198A) (from UniProt P20443 1-403) (natural protein)”, in data set [2], the Kd worked out at 537 µM, the log Kdim (association constant) was determined as 3.27 and the stoichiometry N is 2.

B1: wild type mouse arrestin-1 (natural protein, UniProt P20443 1-403, looked up)
chain: MAACGKTNKSHVIFKKVSRDKSVTIYLGKRDYVDHVSQVEPVDGVVLVDPELVKGKKVYVTLTCAFRYGQEDIDVMGLTFRRDLYFSRVQVYPPVGAMSVLTQLQESLLKKLGDNTYPFLLTFPDYLPCSVMLQPAPQDVGKSCGVDFEVKAFASDITDPEEDKIPKKSSVRLLIRKVQHAPPEMGPQPSAEASWQFFMSDKPLNLSVSLSKEIYFHGEPIPVTVTVTNNTDKVVKKIKVSVEQIANVVLYSSDYYVKPVASEETQEKVQPNSTLTKTLVLVPLLANNRERRGIALDGKIKHEDTNLASSTIIKEGIDRTVMGILVSYHIKVKLTVSGFLGELTSSEVATEVPFRLMHPQPEDPAKESVQDENLVFEEFARQNLKDTGENTEGKKDEDAGQDE
For the molecule B1, the Kd in “SEC-MALS [3]” was found to be 63.1 µM; in the data set “SEC-MALS [5]” it was 57.5 µM. In addition, the “stoichiometry N” value in the data set “SEC-MALS [4]” worked out at 4; in the data set “SEC-MALS [6]”, 2.

B2: wild type human arrestin-1 (natural protein, UniProt P10523 1-405, looked up)
chain: MAASGKTSKSEPNHVIFKKISRDKSVTIYLGNRDYIDHVSQVQPVDGVVLVDPDLVKGKKVYVTLTCAFRYGQEDIDVIGLTFRRDLYFSRVQVYPPVGAASTPTKLQESLLKKLGSNTYPFLLTFPDYLPCSVMLQPAPQDSGKSCGVDFEVKAFATDSTDAEEDKIPKKSSVRLLIRKVQHAPLEMGPQPRAEAAWQFFMSDKPLHLAVSLNKEIYFHGEPIPVTVTVTNNTEKTVKKIKAFVEQVANVVLYSSDYYVKPVAMEEAQEKVPPNSTLTKTLTLLPLLANNRERRGIALDGKIKHEDTNLASSTIIKEGIDRTVLGILVSYQIKVKLTVSGFLGELTSSEVATEVPFRLMHPQPEDPAKESYQDANLVFEEFARHNLKDAGEAEEGKRDKNDVDE
With B2, the Kd stood at 224 µM in “SEC-MALS [3]” and 2.95 µM in “SEC-MALS [5]”.
